Experimental data from patent JP2012115243A (dated 2012).

Legend:
[1] = molecular target: T1, 抗MT1−MMP抗体MMPK9I (ハイブリドーマ19Bが産生する抗体IgG); assay: flow immunoassay: free hinge peptide (0.0-100 ng/mL) inhibits binding of Cy5-F(ab')2-labelled IgG MMPK9I to conjugate-coated polystyrene beads
T1 construct: Mouse IgG from hybridoma 19B; Culture supernatant in the screening; in the flow immunoassay in complex with Cy5-labelled goat anti-mouse IgG F(ab')2; also called 抗体K9I

MT1−MMPヒンジ領域ペプチドコンジュゲート = molecular target: T2, MT1−MMPヒンジ領域ペプチドコンジュゲート (mouse, UniProt P02769 25-607 (bovine entry), C-terminal Cys coupled through the linker Sulfo-EMCS to the carrier protein); assay: SPR, peptide 3-BSA complex immobilised, scFv as analyte
T2 construct: peptide 3); also called ペプチド−BSA複合体; 固相化抗原
T2 sequence (P02769 25-607 limits assumed): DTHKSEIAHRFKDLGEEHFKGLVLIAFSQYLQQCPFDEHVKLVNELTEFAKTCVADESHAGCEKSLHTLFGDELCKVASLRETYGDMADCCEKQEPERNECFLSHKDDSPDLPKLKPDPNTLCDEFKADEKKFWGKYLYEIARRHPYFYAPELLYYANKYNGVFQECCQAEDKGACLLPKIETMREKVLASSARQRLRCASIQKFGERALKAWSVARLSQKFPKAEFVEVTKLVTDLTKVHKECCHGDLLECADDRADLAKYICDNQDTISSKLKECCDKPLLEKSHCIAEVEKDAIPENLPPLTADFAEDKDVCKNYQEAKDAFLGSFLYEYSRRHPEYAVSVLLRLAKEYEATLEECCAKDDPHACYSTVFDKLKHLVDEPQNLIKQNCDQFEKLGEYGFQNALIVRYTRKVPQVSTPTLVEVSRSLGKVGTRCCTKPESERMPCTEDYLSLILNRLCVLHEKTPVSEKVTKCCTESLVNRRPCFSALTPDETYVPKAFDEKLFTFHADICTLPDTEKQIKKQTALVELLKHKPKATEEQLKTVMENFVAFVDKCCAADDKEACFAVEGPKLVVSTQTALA

IC50 [1] [ng/mL] | Kd (MT1−MMPヒンジ領域ペプチドコンジュゲート) [nM] | Binder
~4.74 |  | PQPRTTSRPSVPDKPKNC (also called MT1−MMPペプチド; 抗原ペプチド) [MT1−MMPヒンジ領域ペプチド]
 | ~10 | 単鎖抗体MMP98−1 (scFv, V domains shown) VH: EVQLQQSGPELKKPGETVKISCKASGYPVTKYGMNWVKQAPGKGLKWMGWINTYTGEPTYTDDFKGRFAFSLETSANTAYLQINNLKDEDTATYFCANSHGKYVEWFTYWGQGTTVTVSS VL: DIELTQSPTTMAASPGEKITITCSASSSISSNYLHWYQQKPGFSPKLLIYRTSNLASGVPARFSGSGSGTSYSLTIGTMEAEDVATYYCQQGSSIPLTFGAGTKLELKR
 | ~10 | 単鎖抗体MMPK9E−1 (scFv, V domains shown) VH: QIQLVQSGPELKKPGETVKISCKASGYTFTSYALHWVKQAPGKGLKWMGWKYTNTGEPTYGDDFKGRFAFSLETSASTAYLQINNLKNEDMATYFCARGGLSSYAMDYWGQGTSVTVSS VL: DIVMSQSPSSLAVSAGEKVTMSCKSSQSLLNSRTRKNYLAWYQQKPGQSPKLLIYWASTRESGVPDRFTGTGSGTDFTLTISSVQAEDLAVYYCKQSYNLLVTFGAGTKLELKR
 | ~10 | 単鎖抗体MMPK9I−1 (scFv, V domains shown) VH: QVQLQQSGAELVRPGASVTLSCKASGYRFTDYEMHWVRQTPVHGLEWIGAIDPETGGTAYNQKFKGKATLTEDKSSSTAYMELRSLTSEDSAVYYCTTMITTALDYWGQGTSVTVSS VL: DVLMTQTPLSLPVSLGDQASISCRSSQSIVHSDGNTYLEWYLQKPGQSPKVLIYKVSNRFSGVPDRFSGSGSGTDFTLKITRVEAEDLGVYYCFQGSHVPYTFGGGTKLEIKR
